Data: patent US9512236B2, “Amino acid sequences directed against GPCRS and polypeptides comprising the same for the treatment of GPCR-related diseases and disorders” (Ablynx N.V., priority 2006, dated 2016)
Changes are numbered by the printed parent chain.

Tests used:
[1] = molecular target: T1, hCXCR4/Gαqi5 (Homo sapiens, UniProt P61073); assay: CXCL12-induced inositol phosphate accumulation in HEK293T cells co-transfected with CXCR4 and Gαqi5; assay type: cell-based; conditions: 30 nM CXCL12
T1 construct: expressed in transfected cells; host or cells: HEK293T
Excerpt: In an effort to functionally characterize the Nanobodies 238D2 and 238D4, the inventors measured their ability to activate G-protein signaling or to inhibit the CXCL12-induced G-protein signaling in HEK293T cells transiently co-transfected with cDNAs encoding CXCR4 and Gαqi5. This assay is based upon the use of the chimeric Gαqi5-protein that contains of a Gαq backbone with the 5 C-terminal amino acids replaced by those from Gαi. The chimeric G-protein is activated by CXCR4 like a Gαi subunit but transduces signals like Gαq proteins (Coward, P., et al., Chimeric G Proteins Allow a High-Throughput Signaling Assay of […] Receptors, Analytical Biochemistry (1999) 270: 242-248). Thus, the activation of Gαqi5 can be quantified by the measurement of accumulated inositol phosphates.
Methods: On day 1, HEK293T cells were plated out at a density of 2 million cells/dish. On day 2, these cells were transfected with 2.5 μg CXCR4 DNA and 2.5 μg Gαqi5, using the PEI method. Cells were plated out the next day in poly-L-lysine coated 24 well plates (500 μl/well) and labeled after 4-6 hours with 2 μCi/ml 3H-inositol in inositol-free medium. […] After this final incubation, the reaction was stopped by aspiration of stimulation medium and addition of 10 mM formic acid (FIG. 4).

[2] = molecular target: T2, CXCR4 (Homo sapiens, UniProt P61073); assay: [125I]-CXCL12 competition binding on membranes from HEK293T cells transiently expressing CXCR4 (Table I)
T2 construct: expressed in transfected cells; host or cells: HEK293T (membranes)
Excerpt: Another example of a therapeutic relevant GPCR is CXCR4, which was previously identified as such in Table C and Table D of US20100062004. This representative GPCR has now been further investigated by the present inventors. Different pools of highly similar clones able to inhibit specific [^125I]-CXCL12 binding were identified in a CXCR4 competition binding assay. Nanobodies representing these different pools were purified and further pharmacologically analyzed as detailed in the Example section of WO09/138519. In particular two representative monovalent Nanobodies 238D2 and 238D4 and different mono- and heterobivalent constructs thereof have been analyzed in depth:
Additionally, the inventors engineered a series of mono-specific bivalent and biparatopic CXCR4 constructs. […] Overall, short peptide linkers were used favoring binding to CXCR4 monomers.
In membrane binding experiments mAb 12G5, which is a known neutralizing CXCR4 antibody, seems only to displace 50% of radiolabeled 125I-CXCL12 (CXCR4 ligand).

[3] = molecular target: CXCR7 (Homo sapiens, UniProt P25106); assay: Competition with Alexa647-labelled 14G03 in FACS analysis; assay type: binding; conditions: Alexa647-labelled 14G03, FACS
Excerpt: Nanobodies 08A05, 08A10, 07C03, 01C10 and 14G03, Mab 8F11 (Biolegend), Mab 11G8 (R&D) and Mab 9C4 (MBL) were further tested for competition with Alexa647-labelled 14G03 in FACS analysis.

[4] = molecular target: CXCR7 point mutants (Homo sapiens, UniProt P25106, M33Q); assay: Binding to a set of 10 point mutants of CXCR7; conditions: M33Q point mutant
Method: (§1) In a third approach, Nanobodies were tested for their binding to a set of 10 point mutants of CXCR7 (S9A, F14Y, 117L, S18N, W19A, S23G, D25A, V32A, M33Q, N36T), which yielded information on the individual NANOBODY® (VHH) epitopes.

[5] = molecular target: CXCR7 point mutants (Homo sapiens, UniProt P25106, W19A); assay: Binding to a set of 10 point mutants of CXCR7; conditions: W19A point mutant
Method: as §1

[6] = molecular target: CB1R; assay: Binding of clones measured on Biacore (Table B-2); conditions: read-out: Binding of clones against CB1R
Method: (§2) Binding of 4 clones directed against CB1R and of 4 clones against PTHR was measured on Biacore.

[7] = molecular target: T3, PTHR (Homo sapiens, UniProt Q03431); assay: Binding of clones measured on Biacore (Table B-3)
T3 sequence (Q03431 27-593): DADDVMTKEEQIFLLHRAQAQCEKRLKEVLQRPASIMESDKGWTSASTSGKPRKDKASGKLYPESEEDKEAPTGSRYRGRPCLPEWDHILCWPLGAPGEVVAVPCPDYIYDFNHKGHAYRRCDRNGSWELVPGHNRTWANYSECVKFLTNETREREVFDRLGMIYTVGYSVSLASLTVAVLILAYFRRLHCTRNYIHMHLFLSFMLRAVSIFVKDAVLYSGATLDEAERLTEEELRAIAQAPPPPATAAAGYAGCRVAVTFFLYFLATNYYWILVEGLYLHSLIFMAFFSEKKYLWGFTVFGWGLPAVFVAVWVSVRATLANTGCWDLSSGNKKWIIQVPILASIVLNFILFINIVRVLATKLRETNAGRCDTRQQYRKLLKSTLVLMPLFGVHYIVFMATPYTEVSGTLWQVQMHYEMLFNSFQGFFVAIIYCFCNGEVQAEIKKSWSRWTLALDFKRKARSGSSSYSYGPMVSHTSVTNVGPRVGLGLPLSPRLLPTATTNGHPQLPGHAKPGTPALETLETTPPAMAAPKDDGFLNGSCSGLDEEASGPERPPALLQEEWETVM
Method: as §2

Sequence of CXCR7 point mutants (Homo sapiens, UniProt P25106, M33Q) (P25106 whole entry M33Q): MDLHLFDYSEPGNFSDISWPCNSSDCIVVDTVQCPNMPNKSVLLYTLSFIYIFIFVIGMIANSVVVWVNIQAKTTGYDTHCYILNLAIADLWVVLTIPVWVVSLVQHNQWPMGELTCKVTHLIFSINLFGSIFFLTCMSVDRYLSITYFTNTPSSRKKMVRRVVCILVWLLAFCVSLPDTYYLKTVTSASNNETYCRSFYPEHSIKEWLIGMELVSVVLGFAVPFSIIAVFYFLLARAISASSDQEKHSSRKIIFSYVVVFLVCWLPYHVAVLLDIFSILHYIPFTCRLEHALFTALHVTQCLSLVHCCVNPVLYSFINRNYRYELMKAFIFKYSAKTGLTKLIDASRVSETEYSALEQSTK
T2 sequence (P61073 whole entry): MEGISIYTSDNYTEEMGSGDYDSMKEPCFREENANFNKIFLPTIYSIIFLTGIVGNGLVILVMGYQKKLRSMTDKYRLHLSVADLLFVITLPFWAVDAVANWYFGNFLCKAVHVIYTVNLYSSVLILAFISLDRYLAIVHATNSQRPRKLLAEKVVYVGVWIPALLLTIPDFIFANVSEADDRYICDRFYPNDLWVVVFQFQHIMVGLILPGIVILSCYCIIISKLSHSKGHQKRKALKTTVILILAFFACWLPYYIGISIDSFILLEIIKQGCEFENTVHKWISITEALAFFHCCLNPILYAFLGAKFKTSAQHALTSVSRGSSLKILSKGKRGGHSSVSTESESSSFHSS
Sequence of CXCR7 point mutants (Homo sapiens, UniProt P25106, W19A) (P25106 whole entry W19A): as the sequence (P25106 whole entry M33Q) above, with W19A, Q33M counted along it
Sequence of CXCR7 (P25106 whole entry): as the sequence (P25106 whole entry M33Q) above, with Q33M counted along it
T1 sequence (P61073 whole entry): as the sequence (P61073 whole entry) above

c1cc(CN2CCCNCCNCCCNCC2)ccc1CN1CCCNCCNCCCNCC1 [AMD3100, plerixafor, reference compound]
concentration needed to inhibit CXCR4 function [1]: 1 µM

B1: 238D2-20GS-238D4: biparatopic CXCR4 Nanobody, 238D2 linked to 238D4 via 20 amino acid GGGGS-repeat linker (protein)
chain: EVQLVESGGGLVQTGGSLRLSCAASGFTFSSYAMSWVRQAPGKGLEWVSGIKSSGDSTRYAGSVKGRFTISRDNAKNMLYLQMYSLKPEDTAVYYCAKSRVSRTGLYTYDNRGQGTQVTVSSGGGGSGGGGSGGGGSGGGGSEVQLMESGGGLVQAGGSLRLSCAASGRTFNNYAMGWFRRAPGKEREFVAAITRSGVRSGVSAIYGDSVKDRFTISRDNAKNTLYLQMNSLKPEDTAVYTCAASAIGSGALRRFEYDYSGQGTQVTVSS
inhibitory potency on CXCL12-induced inositol phosphate accumulation ([1]; compared to monovalent counterparts and 12G5, FIG. 4): significantly increased inhibitory potency
Ki ([2]; [125I]-CXCL12 displacement, membranes from HEK293T cells transiently expressing CXCR4, read-out: Ki (nM) (receptor affinity)): 0.36 nM
Rel. potency (potency relative to those of monovalent 238D2) ([2]; footnote a: relative to monovalent 238D2): 27
Rel. potency (potency relative to those of monovalent 238D4) ([2]; footnote b: relative to monovalent 238D4): 17
increase in affinity to CXCR4 over monovalent counterpart 238D2 ([2]; relative to monovalent 238D2): 27 fold
increase in affinity to CXCR4 over monovalent counterpart 238D4 ([2]; relative to monovalent 238D4): 17 fold

B2: 08A05: Nanobody against human CXCR7, Group 2 (protein)
VHH: EVQLVESGGGLVQAGDSLRLSCAASGLTFSNYDMGWFRQAPGKEREFVGASWWSGGAPYYSDSVKGRFTISRDNAKNTVYLQANSLRPEDTAVYYCAAKRLRSFASGGSYDYWGQGTQVTVSS
modifications: Nanobody, Nanobody constructs or fragments thereof
competition with 14G03 binding to CXCR7 [3]: compete
epitope includes residue M33 [4]: included residue M33
effect of W19A mutation on binding [5]: did not affect

B3: 08A10: Nanobody against human CXCR7, Group 2 (protein)
VHH: EVQLVESGGGLVQAGGSLRLSCAASGSIFSIAAMGWYRQATGKQRELVATITDGGTTTYADSVKGRVTISRDRSANTVYLAMNNLKPDDTAVYYCYAYLRYTSRVPGDNYWGQGTQVTVSS
modifications: Nanobody, Nanobody constructs or fragments thereof
competition with 14G03 binding to CXCR7 [3]: compete
epitope includes residue M33 [4]: included residue M33
effect of W19A mutation on binding [5]: did not affect

B4: 01C10: Nanobody against human CXCR7, Group 1 (protein)
VHH: EVQLVESGGGLVQTGASLRLSCAASGRTFSNYAMGWFRQAPGKERERVAAITPRAFTTYYADSVKGRFTISRDNAKNTAYLQMVSLKPEDTAVYYCAAQLVGSGSNLGRQESYAYWGQGTQVTVSS
modifications: Nanobody, Nanobody constructs or fragments thereof
competition with 14G03 binding to CXCR7 [3]: does not
effect of W19A mutation on binding [5]: affected

B5: 14G03: Nanobody against human CXCR7, Group 2 (protein)
VHH: EVQLVESGGGLVQPGGSLRISCAASGSIYLINYMGWYRQAPGKQRELVATLTSGGSTNYAGSVKGRFAISRDNAKNTVYLQMNSLKPEDTAVYYCNIGGTLYDRRRFESWGQGTQVTVSS
modifications: Nanobody, Nanobody constructs or fragments thereof
epitope includes residue M33 [4]: included residue M33
effect of W19A mutation on binding [5]: did not affect

B6: vHH6B7 (protein)
VHH: EVQLVESGGGLVQAGGSLRLSCAASGRTLRNYDMGWFRQAPGKEREFVATIRWSTSETYYADSVKGRFTISSDNAKNTVDLQMNSLTPGDTGVYYCAARSVYSYDYNYWGQGTQVTVSS
Kd [6]: 0.012 µM

B7: vHH6H4 (protein)
VHH: EVQLVESGGGLVQAGGSLRLACAASGSIFSFNAMGWYRQAPGKQRELLAVITRDGITKYADSVKGRFTISRDNAKNTMYLQMNSLKPEDTAVYYCHTGLPTGRGSHSDYWGQGTQVTVSS
Kd [6]: 0.036 µM

B8: vHH5G11 (protein)
VHH: B6 VHH with E6K, R30S, S56G, A61T, S72K, A75T, G89E, G92A, A98S, D105E
Kd [6]: 0.012 µM

B9: vHH26F2 (protein)
VHH: EVQLVESGGGLVQAGGSLRLSCVASGFSFDDYAIGWFRQAPGQDREPLACITSGGTRNYNPSVMARFRIDRDNSVKTVYLQINTLKPEDTAVYYCSTELDRQGGSAHECREYDTWGQGTQVTVSS
Kd ([7]; PTHR + CaCl2): 0.07 µM
Kd ([7]; PTHR Fos12): 0.36 µM

B10: vHH22A3 (protein)
VHH: EVQLVESGGGLVQAGGSLRLSCAASGNIFANNIMGWYRQPPGKEREFVAHVSHDGDSMYAVSVKGRFAISRKDATNLYLQMNSLKPEDTAIYFCRLLNIPTQGRMEGFWGQGTQVTVSS
Kd ([7]; PTHR + CaCl2): 0.009 µM
Kd ([7]; PTHR − CaCl2): 0.017 µM

B11: vHH23A3 (protein)
VHH: EVQLVESGGGLVQAGGSLRLSCAASGLTFSNYAMGWFRQAPGKEREWVASINWSGGSTYYEDSVEGRFTISRDNAKNTVNLQMNSLKPEDTAVYYCAAKRGHYSREYDYWGQGTQVTVSS
Kd ([7]; PTHR − CaCl2): 0.022 µM

B12: vHH26A6 (protein)
VHH: EVQLVESGGGLVQAGGSLRLSCAASRSRSSFDDMGWYRQAPGKQREFVGGITLGGSTIYADSVKGRFTISMDSARNTGYLQMNSLKPEDTAVYYCNAALDGYSGSSWGQGTQVTVSS
Kd ([7]; PTHR − CaCl2): 0.017 µM

B13: L13 (protein)
chain: EVQLMESGGGLVQAGGSLRLSCAASGRTFNNYAMGWFRRAPGKEREFVAAITRSGVRSGVSAIYGDSVKDRFTISRDNAKNTLYLQMNSLKPEDTAVYTCAASAIGSGALRRFEYDYSGQGTQVTVSSGGGGSGGGGSGGGGSGGGGSEVQLMESGGGLVQAGGSLRLSCAASGRTFNNYAMGWFRRAPGKEREFVAAITRSGVRSGVSAIYGDSVKDRFTISRDNAKNTLYLQMNSLKPEDTAVYTCAASAIGSGALRRFEYDYSGQGTQVTVSS
Displacem. (%) (maximal displacement of [125I]-CXCL12) ([2]; membranes from HEK293T cells transiently expressing CXCR4, means ± S.E.M.): 96 ± 5%
